This data set deals with the molecule itself. As to the kind of experiment: cryo-EM structure.

B1: Human Best1 protein purified for cryo-EM (GABA-bound pentamer) (natural protein)
chain: TITYTSQVANARLGSFSRLLLCWRGSIYKLLYGEFLIFLLCYYIIRFIYRLALTEEQQLMFEKLTLYCDSYIQLIPISFVLGFYVTLVVTRWWNQYENLPWPDRLMSLVSGFVEGKDEQGRLLRRTLIRYANLGNVLILRSVSTAVYKRFPSAQHLVQAGFMTPAEHKQLEKLSLPHNMFWVPWVWFANLSMKAWLGGRIRDPILLQSLLNEMNTLRTQCGHLYAYDWISIPLVYTQVVTVAVYSFFLTCLVGRQFLNPAKAYPGHELDLVVPVFTFLQFFFYVGWLKVAEQLINPFGEDDDDFETNWIVDRNLQVSLLAVDEMHQDLPRMEPDMYWNKPEPQPPYTAASAQFRRASFMGSTFNISLNKEEMEFQPNQEDEEDAHAGIIGRFLGLQSHDHHPPRANSRTKLLWPKRESLLHEGLPKNHKAAKQNVRGQEDNKAWKLKAVDAFKSAPLYQRPGYYSAPQTPLSPTPMFFPLEPSAPSKLHSVTGIDTKDKSLKTVSSGAKKSFELLSESDGALMEHPEVSQVRRKTVEFNLTDMPEIPENHLKEPLEQSPTNIHTTLKDHMDPYWALENRDEAHS
B1: the “stoichiometry N” value is 5.

Usually stoichiometry N stands for the number of molecules, sites or subunits per partner or assembly.

The values are drawn from publication PMC11401937 (Nature Communications, 2024).
